Results reported in publication PMC6497303, “Molecular understanding of calcium permeation through the open Orai channel” (PLoS Biology, 2019).

Target: the molecule itself
Assay: crystal structure; purified dOrai-P288L in NG/NM detergent with POPC:POPE:POPG lipid, sitting drop, 17°C, sodium citrate pH 6.5, PEG400; 4.5 Å; 2 hexamers in each asymmetric unit

B1: Drosophila melanogaster Orai (dOrai) mutant (P288L) channel, amino acids 132 to 341 with C224S, C283T and P288L (domain or fragment, UniProt Q9U6B8 132-341, looked up)
chain: SMSQSGEDLHSPTYLSWRKLQLSRAKLKASSKTSALLSGFAMVAMVEVQLDHDTNVPPGMLIAFAICTTLLVAVHMLALMISTCILPNIETVSNLHSISLVHESPHERLHWYIETAWAFSTLLGLILFLLEIAILCWVKFYDLSPPAAWSATVVLILVMIIFMAFAIHFYRSLVSHKYEVTVSGIRELEMLKEQMEQDHLEHHNNIRNNG
notes: Orai, Drosophila melanogaster, UniProt Q9U6B8, residues 132 to 341 with C224S, C283T and P288L; codons optimised for Homo sapiens; PreScission site between Orai and eGFP; residues of the site may be left after 3C cleavage; also called dOrai-P288L; dOrai-P288L channel; not shown: eGFP, C-terminal, cleaved
stoichiometry N: 6
